Measurements published in PMC5045424, “The La protein counteracts cisplatin-induced cell death by stimulating protein synthesis of anti-apoptotic factor Bcl2”.

Columns and labels:
[1] = biological target: T1, La (LARP3, La/SSB), recombinant His-tagged wildtype (human, UniProt P05455 1-408); experiment: fluorescence polarization; 25 nM RNA; EMSA and FP: 25 nM FAM-RNA, 0-600 nM La; competition FP: 200 nM La; buffer, salt, pH and temperature not given (cited to ref 21); conditions: protein: recombinant; tags: His; label: 5' 6-FAM; stem-loop embedding the AUG (mfold)
T1 sequence: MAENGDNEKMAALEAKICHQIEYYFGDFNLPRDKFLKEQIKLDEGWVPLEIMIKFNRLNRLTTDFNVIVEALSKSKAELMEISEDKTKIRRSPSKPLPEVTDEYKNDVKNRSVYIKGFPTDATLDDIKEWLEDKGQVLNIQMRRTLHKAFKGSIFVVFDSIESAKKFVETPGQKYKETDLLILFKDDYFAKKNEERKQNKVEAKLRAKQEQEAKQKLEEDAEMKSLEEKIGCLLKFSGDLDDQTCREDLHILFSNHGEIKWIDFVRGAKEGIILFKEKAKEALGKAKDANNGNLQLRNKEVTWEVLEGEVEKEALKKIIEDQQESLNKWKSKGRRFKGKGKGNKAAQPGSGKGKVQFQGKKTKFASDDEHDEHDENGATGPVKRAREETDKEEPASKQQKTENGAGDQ

[2] = biological target: T1, La (LARP3, La/SSB), recombinant …; experiment: EMSA; 25 nM RNA, 0-600 nM La; EMSA and FP: 25 nM FAM-RNA, 0-600 nM La; competition FP: 200 nM La; buffer, salt, pH and temperature not given (cited to ref 21); conditions: protein: recombinant; tags: His; label: 5' 6-FAM; stem-loop embedding the AUG (mfold)

CCCGUUGCUUUUCCUCUGGGAAGGAUGGCGCACGCUGGG (structured_RNA) [Bcl2_WT RNA oligonucleotide, FAM-labeled (-24 to +15)] gave a Kd [1] of 60.1 ± 4.5 nM and a Kd [2] of 50.5 ± 5.9 nM.
